This note sets out measurements from article doi:10.1101/313882, “Cryptic adaptor protein interactions regulate DNA replication initiation” (bioRxiv, 2018).

Series [1] deals with the molecule itself. The series can be described thus: cross-linking; purified DnaD^WHD or variant at 16 uM with 0.03%, 0.06%, 0.12% glutaraldehyde; 20 mM HEPES pH 7.7, 150 mM NaCl, 1 mM DTT, 1 mM EDTA, 5% glycerol; 15 minutes at room temperature; SDS-polyacrylamide gel, coomassie blue.
Series [2] concerns the molecule itself. The series can be described thus: SEC; size exclusion chromatogram of wild type DnaD^WHD or the ΔNT variant, absorbance at 280 nm (S2 Fig B).

Residue numbers refer to the chain shown, from its start. Numbers in names are those of the source.

B1: purified DnaD^WHD F51A (B. subtilis) (domain or fragment, UniProt P39787 1-128, looked up)
chain: MKKQQFIDMQEQGTSTIPNLLLTHYKQLGLNETELILLLKIKMHLEKGSYAPTPNQLQEGMSISVEECTNRLRMFIQKGFLFIEECEDQNGIKFEKYSLQPLWGKLYEYIQLAQNQTQERKAEGEQKS
notes: DnaD, B. subtilis, winged helix domain, amino acids 1-128, F51A; source: E. coli BL21 (DE3), purified (amylose, Ulp1 digestion, HiTrap Q, Sephacryl S-200); not shown: HIS6, N-terminal, cleaved; MBP, N-terminal, cleaved; SUMO, N-terminal, cleaved
For the protein B1, the “stoichiometry N” value in series [1] amounted to 4.

B2: purified DnaD^WHD, wild type (B. subtilis) (domain or fragment, UniProt P39787 1-128, looked up)
chain: B1 chain with A51F
notes: DnaD, B. subtilis, winged helix domain, amino acids 1-128; native N-terminus after Ulp1; also called WT; source: E. coli BL21 (DE3), purified (amylose, Ulp1 digestion, HiTrap Q, Sephacryl S-200); not shown: HIS6, N-terminal, cleaved; MBP, N-terminal, cleaved; SUMO, N-terminal, cleaved
As to B2, the binding result in series [1] is “binds”.

B3: purified DnaD^WHD I83A (B. subtilis) (domain or fragment, UniProt P39787 1-128, looked up)
chain: B1 chain with A51F, I83A
notes: DnaD, B. subtilis, winged helix domain, amino acids 1-128, I83A; source: E. coli BL21 (DE3), purified (amylose, Ulp1 digestion, HiTrap Q, Sephacryl S-200); not shown: HIS6, N-terminal, cleaved; MBP, N-terminal, cleaved; SUMO, N-terminal, cleaved
For the protein B3, the “stoichiometry N” value in series [1] turned out to be 4.

B4: purified DnaD^WHD ΔNT variant (B. subtilis) (domain or fragment, UniProt P39787 19-128, looked up)
chain: NLLLTHYKQLGLNETELILLLKIKMHLEKGSYFPTPNQLQEGMSISVEECTNRLRMFIQKGFLFIEECEDQNGIKFEKYSLQPLWGKLYEYIQLAQNQTQERKAEGEQKS
notes: DnaD, B. subtilis, winged helix domain (1-128) without the N-terminal extension (residues 1-18); The limits 19-128 are worked out from the printed extension (1-18) and the limits of DnaD^WHD (1-128); the purification is that told for DnaD^WHD and its variants; source: E. coli BL21 (DE3), purified (amylose, Ulp1 digestion, HiTrap Q, Sephacryl S-200); not shown: HIS6, N-terminal, cleaved; MBP, …
As to B4, the “stoichiometry N” value in series [2] was found to be 2.
